Source: the supplement of paper PMC10724198

Columns and labels:
[1] = tested on: Saccharomyces cerevisiae; experiment: protein stability index of tFT-peptide fusion in deletion strain of DAS1 (PSI (0-1 scale)); higher = more stable (slower turnover)
Protocol: (§1)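 MPS profiling in S. cerevisiae of two library types built from selected 12-aa C-degron peptides (IN1, IN2, LN1, LN3, VN2, R1-R5, W1-W3, Atg1 and Rpa12 C-termini): saturation mutagenesis libraries and C-terminal +1 capping libraries (13 aa). Each peptide is fused to the C-terminus of a sfGFP-mCherry timer, after a GGGS linker. Cells are FACS-sorted into 8 mCherry/sfGFP bins and sequenced. PSI runs from 0 (unstable) to 1 (stable), measured once in wild type and in the das1Δ or doa10Δ background.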

[2] = tested on: Saccharomyces cerevisiae; experiment: protein stability index of tFT-peptide fusion in wild type (PSI (0-1 scale)); higher = more stable (slower turnover); conditions: genetic background: wild type
Protocol: as §1
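Throughout, for protein stability index of tFT-peptide fusion in deletion strain of DAS1: PSI is a weighted mean of each variant's read distribution over the sorted stability bins, computed only for variants having over 10 reads in total.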
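Throughout, for protein stability index of tFT-peptide fusion in wild type: PSI derived as read-weighted mean over the 8 sorting bins, only variants exceeding 10 total reads kept, mCherry placed adjacent to the peptide and sfGFP distal.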

LSMRWTFRYWVN
protein stability index [1]: 0.531
protein stability index [2]: 0.0756

LVVHLSCVACIN
protein stability index [1]: 0.0251
protein stability index [2]: 0.0147

LVVYDSCVACIN
protein stability index [1]: 0.468
protein stability index [2]: 0.368

LVVYLNCVACIN
protein stability index [1]: 0.0265
protein stability index [2]: 0.0331

LVVYLPCVACIN
protein stability index [1]: 0.202
protein stability index [2]: 0.119

LVVYLSCNACIN
protein stability index [1]: 0.0655
protein stability index [2]: 0.0647

LVVYLSCVACINA
protein stability index [1]: 0.0343
protein stability index [2]: 0.0212

LVVYLSCVACINP
protein stability index [1]: 0.0332
protein stability index [2]: 0.0199

LVVYLSCVACIP
protein stability index [1]: 0.0442
protein stability index [2]: 0.0232

LVVYLSCVLCIN
protein stability index [1]: 0.141
protein stability index [2]: 0.0221

LVVYLSCVQCIN
protein stability index [1]: 0.0333
protein stability index [2]: 0.0151

LVVYLSGVACIN
protein stability index [1]: 0.264
protein stability index [2]: 0.181

LVVYLSIVACIN
protein stability index [1]: 0.0849
protein stability index [2]: 0.0584

LVVYLSSVACIN
protein stability index [1]: 0.0579
protein stability index [2]: 0.0245

LVVYLWCVACIN
protein stability index [1]: 0.0851
protein stability index [2]: 0.0141

LVYYLSCVACIN
protein stability index [1]: 0.0331
protein stability index [2]: 0.0126

LWILRQKMNHQN
protein stability index [1]: 0.695
protein stability index [2]: 0.124

MLIQPLPVQFLN
protein stability index [1]: 0.654
protein stability index [2]: 0.0562

NVVYLSCVACIN
protein stability index [1]: 0.0341
protein stability index [2]: 0.0156

PAKRNHLIKLLN
protein stability index [1]: 0.618
protein stability index [2]: 0.131

PALAASFWRVVG
protein stability index [1]: 0.687
protein stability index [2]: 0.178

PDCRNHLIKLLN
protein stability index [1]: 0.673
protein stability index [2]: 0.136

PDIRNHLIKLLN
protein stability index [1]: 0.675
protein stability index [2]: 0.134

PDKRNFLIKLLN
protein stability index [1]: 0.61
protein stability index [2]: 0.112

PDKRNHHIKLLN
protein stability index [1]: 0.665
protein stability index [2]: 0.111

PDKRNHIIKLLN
protein stability index [1]: 0.57
protein stability index [2]: 0.132

PDKRNHLEKLLN
protein stability index [1]: 0.63
protein stability index [2]: 0.292

PDKRNHLIGLLN
protein stability index [1]: 0.609
protein stability index [2]: 0.612

PDKRNHLIILLN
protein stability index [1]: 0.66
protein stability index [2]: 0.107

PDKRNHLIKLLNL
protein stability index [1]: 0.665
protein stability index [2]: 0.298

PDKRNHLIKTLN
protein stability index [1]: 0.604
protein stability index [2]: 0.164

PDKRNHLIVLLN
protein stability index [1]: 0.637
protein stability index [2]: 0.148

PDKRNHLNKLLN
protein stability index [1]: 0.579
protein stability index [2]: 0.126

PDKRNHLRKLLN
protein stability index [1]: 0.574
protein stability index [2]: 0.205

PDKRNHRIKLLN
protein stability index [1]: 0.661
protein stability index [2]: 0.159

PDKRNQLIKLLN
protein stability index [1]: 0.633
protein stability index [2]: 0.0747

PDKRYHLIKLLN
protein stability index [1]: 0.597
protein stability index [2]: 0.0495

PDVRNHLIKLLN
protein stability index [1]: 0.613
protein stability index [2]: 0.119

PPKRNHLIKLLN
protein stability index [1]: 0.581
protein stability index [2]: 0.116

PSLAAAFWRVVG
protein stability index [1]: 0.702
protein stability index [2]: 0.142

PSLAADFWRVVG
protein stability index [1]: 0.712
protein stability index [2]: 0.171

PSLAAGFWRVVG
protein stability index [1]: 0.678
protein stability index [2]: 0.164

PSLAALFWRVVG
protein stability index [1]: 0.674
protein stability index [2]: 0.129

PSLAASCWRVVG
protein stability index [1]: 0.675
protein stability index [2]: 0.143

PSLAASFWRGVG
protein stability index [1]: 0.707
protein stability index [2]: 0.232

PSLAASFWRRVG
protein stability index [1]: 0.69
protein stability index [2]: 0.128

PSLAASFWRVDG
protein stability index [1]: 0.7
protein stability index [2]: 0.68

PSLAASFWRVNG
protein stability index [1]: 0.702
protein stability index [2]: 0.167

PSLAASFWRVVGF
protein stability index [1]: 0.693
protein stability index [2]: 0.692

PSLAASFWRVVGQ
protein stability index [1]: 0.705
protein stability index [2]: 0.649

PSLAASFWRVVGR
protein stability index [1]: 0.691
protein stability index [2]: 0.692

PSLAASFWRVVW
protein stability index [1]: 0.683
protein stability index [2]: 0.637

PSLAASGWRVVG
protein stability index [1]: 0.679
protein stability index [2]: 0.193

PSLAASMWRVVG
protein stability index [1]: 0.73
protein stability index [2]: 0.147

PSLAASTWRVVG
protein stability index [1]: 0.68
protein stability index [2]: 0.132

PSLAGSFWRVVG
protein stability index [1]: 0.667
protein stability index [2]: 0.152

PSLAHSFWRVVG
protein stability index [1]: 0.669
protein stability index [2]: 0.167

PSLAISFWRVVG
protein stability index [1]: 0.633
protein stability index [2]: 0.127

PSMRWTFRYWVN
protein stability index [1]: 0.571
protein stability index [2]: 0.0877
